# Where two headings read alike, the source gives them in different places.
# B1: NgR-ecto: secreted fragment of amino acid residues 1-348 of the murine NgR, in HEK293T conditioned medium (protein)
# chain: CPGACVCYNEPKVTTSCPQQGLQAVPTGIPASSQRIFLHGNRISHVPAASFQSCRNLTILWLHSNALARIDAAAFTGLTLLEQLDLSDNAQLHVVDPTTFHGLGHLHTLHLDRCGLRELGPGLFRGLAALQYLYLQDNNLQALPDNTFRDLGNLTHLFLHGNRIPSVPEHAFRGLHSLDRLLLHQNHVARVHPHAFRDLGRLMTLYLFANNLSMLPAEVLMPLRSLQYLRLNDNPWVCDCRARPLWAWLQKFRGSSSEVPCNLPQRLADRDLKRLAASDLEGCAVASGPFRPIQTSQLTDEELLSLPKCCQPDAADKASVLE
# modifications: left off: small tags and cut ends
# notes: secreted fragment of amino acid residues 1-348 of the murine NgR, in HEK293T conditioned medium
# B2: AP-Nogo: fusion protein of His6 tag, placental alkaline phosphatase (AP) and the 66 amino acid active domain of Nogo (protein)
# chain: HHHHHHIIPVEEENPDFWNREAAEALGAAKKLQPAQTAAKNLIIFLGDGMGVSTVTAARILKGQKKDKLGPEIPLAMDRFPYVALSKTYNVDKHVPDSGATATAYLCGVKGNFQTIGLSAAARFNQCNTTRGNEVISVMNRAKKAGKSVGVVTTTRVQHASPAGTYAHTVNRNWYSDADVPASARQEGCQDIATQLISNMDIDVILGGGRKYMFRMGTPDPEYPDDYSQGGTRLDGKNLVQEWLAKRQGARYVWNRTELMQASLDPSVTHLMGLFEPGDMKYEIHRDSTLDPSLMEMTEAALRLLSRNPRGFFLFVEGGRIDHGHHESRAYRALTETIMFDDAIERAGQLTSEEDTLSLVTADHSHVFSFGGYPLRGSSIFGLAPGKARDRKAYTVLLYGNGPGYVLKDGARPDVTESESGSPEYRQQSAVPLDEETHAGEDVAVFARGPQAHLVHGVQEQTFIAHVMAFAACLEPYTACDLAPPAGTTDAAHPGRIYKGVIQAIQKSDEGHPFRAYLESEVAISEELVQKYSNSALGHVNCTIKELRRLFLVDDLVDSLK
# B3: GST-Nogo: GST fusion protein of the 66 amino acid lumenal-extracellular fragment of Nogo-A, expressed in E. coli (protein)
# chain: RIYKGVIQAIQKSDEGHPFRAYLESEVAISEELVQKYSNSALGHVNCTIKELRRLFLVDDLVDSLK
# modifications: also: GST fusion protein
# notes: GST fusion protein of the 66 amino acid lumenal-extracellular fragment of Nogo-A, expressed in E. coli
# How the values were obtained:
# [1] = system: chick E12 dorsal root ganglion growth cones; assay: Growth cone collapse assay in chick dorsal root ganglion explants; type: cell-based
# Protocol: (§1) For all experiments involving cell culture, the following methods were employed. The culture of embryonic chick E10 and E12 dorsal root ganglion explants and dissociated neurons utilized methods described for E7 dorsal root ganglion cultures (Takahashi et al., (1998) Nature Neurosci. 1, 487-493; Takahashi et al., (1999) Cell 99, 59-69; Goshima et al., (1995) Nature 376, 509-514; Jin & Strittmatter, (1997) J. Neurosci. […]). NGF-differentiated PC12 cells were cultured as described (Strittmatter et al., (1994) J. Neurosci. 14, 2327-2338). Embryonic spinal cord explants (rat E10 or chick E5) were cultured for 7-14 days in the presence of PDGF-AA to induce differentiation of some cells into mature oligodendrocytes (Vartanian et al., (1999) Proc. Natl. Acad. Sci. USA 96, 731-735). The procedure for growth cone collapse assays is identical to that for analysis of Sema3A-induced growth cone collapse (Takahashi et al., (1998) Nature Neurosci. 1, 487-493; Takahashi et al., (1999) Cell 99, 59-69; Goshima et al., (1995) Nature 376, 509-514; Jin & Strittmatter, (1997) J. Neurosci. 17, 6256-6263). The method for analysis of total neurite outgrowth has also been described (Goshima et al., (1995) Nature 376, 509-514; Jin & Strittmatter, (1997) J. Neurosci. 17, 6256-6263; Strittmatter et al., (1994) J. Neurosci. 14, 2327-2338). In outgrowth assays, proteins and peptides were added one hour after plating to minimize any effect on the total number of adherent cells. To test the effect of substrate-bound GST or GST-Nogo, the protein solutions were dried on poly-L-lysine coated glass, washed and then coated with laminin. For E12 cultures, the neuronal identity of cells was verified by staining with anti-neurofilament antibodies (2H3, Develomental Studies Hybridoma Bank) and neurites were traced by observation of rhodamine-phalloidin staining of F-actin in processes.
# The expression of recombinant Nogo in HEK293T cells allows a rigorous test of whether this protein has axon outgrowth inhibiting effects. Washed membrane fractions from vector- or hNogo-A-Myc-transfected HEK293T cells were added to chick E12 dorsal root ganglion explant cultures. Growth cone morphology was assessed after a thirty minute incubation at 37° C. by fixation and rhodamine-phalloidin staining.
# Briefly, for growth cone collapse, DRG explants were plated on plastic chamber slides precoated with 100 μg ml^−1 poly-L-lysine and 10 μg ml^−1 laminin. Cultures were grown 14-16 h prior to treatment.
# [2] = system: GST-Nogo-66 inhibition of neurite outgrowth; assay: Blockade of Nogo-induced inhibition of neurite outgrowth in chick DRG neurons; type: cell-based
# Protocol: as §1
# Peptide 140 was tested for its ability to neutralize neurite outgrowth inhibition caused by the addition of GST fused to residues #1055-1120 of hNogoA (designated Nogo-66 in FIG. 16e). Plastic chamber slides were coated with 100 μg ml^−1 poly-L-lysine, washed, and dried. 3 μl drops of PBS containing GST-hNogoA(residues #1055-1120) were spotted and dried. Slides were then rinsed and coated with 10 μg ml fs24^−1 laminin before addition of dissociated E12 chick DRGs. Peptide 140 was added at the time of cell plating. Cultures were grown for 5-7 h after which neurite outgrowth was assessed.
# Although the role of the GPI anchor may be to regulate NgR cellular compartmentalization, another possible role for the GPI linkage is to provide a NgR cleavage site. Cleaving NgR could serve to affect hNogo-A (1055-1120) signaling by rendering a neuron insensitive to hNogo-A (1055-1120) and by releasing soluble NgR that could then act on adjacent cells to modulate hNogo-A (1055-1120) signaling. To determine if soluble mNgR modulates hNogo-A (1055-1120)-dependent inhibition, a soluble mNgR was generated by inserting a truncated cDNA encoding mNgR residues 1-348 in frame with a myc-His carboxy tag into pcDNA3.1. The resulting plasmid expressing mNgREcto was transfected into HEK293T cells, and conditioned media containing mNgREcto protein was collected. To test the effect of mNgREcto on Nogo signaling, E13 dissociated DRGs were plated in the presence of hNogo-A (1055-1120) or myelin. The inhibitors were presented in either soluble or substrate-bound forms. For neurite outgrowth assays on hNogo-A (1055-1120) or myelin substrates, Permanox chamber slides were coated with 100μ, fs24 g ml^−1 poly-L-Lysine, washed, and then 3-μl drops of phosphate-buffered saline (hereinafter “PBS”) containing 0, 10, 50, or 150 ng of GST-hNogo-A (1055-1120) or myelin were spotted and dried. GST-hNogo-A (1055-1120) and myelin were prepared as previously described (GrandPre et al., supra; Fournier et al., J. Cell Biol. 149:411-421, 2000). After three PBS washes, slides were coated with 10 μg ml^−1 laminin. […]
molecule,measurement,setting,value
"Peptide 140: synthetic peptide of amino acids #1055-1094 of the human NogoA protein, acetylated and amidated at the termini (Ac-RIYKGVIQAIQKSDEGHPFRAYLESEVAISEELVQKYSNS-NH2; UniProt Q9NQC3 1055-1094, looked up, fragment)",growth cone collapse activity (in words),"[1]; added to DRG explant cultures, thirty minutes",does not induce significant growth cone collapse
same,blockade of Nogo-induced neurite outgrowth inhibition (in words),[2],extensive outgrowth is observed
"Pep2-41: 2-41 fragment of the 66 amino acid region of Nogo, acetylated and amidated at the termini (Ac-RIYKGVIQAIQKSDEGHPFRAYLESEVAISEELVQKYSNS-NH2)",blockade of Nogo-induced neurite outgrowth inhibition (in words),[2],can reverse the inhibition of neurite outgrowth
same,blockade of Nogo-induced neurite outgrowth inhibition (in words),[2]; listed as 2-41 fragment,blocks
B1,blockade of Nogo-induced neurite outgrowth inhibition (in words),[2],blocks Nogo-66-induced inhibition of neurite outgrowth
same,blockade of Nogo-induced neurite outgrowth inhibition (in words),[2]; listed as NgREcto,partially reversed
B2,relative potency in growth cone collapse (comparator in the words),[1],slightly more potent than GST-Nogo
same,growth cone collapse (in words),"[1]; conditioned medium, AP-fusion protein final concentration 20 nM, E12 chick DRG",potent growth-cone-collapsing agent
B3,relative potency in growth cone collapse (comparator in the words),[1],even more potent than the urea-extracted protein
same,relative potency in growth cone collapse (comparator in the words),[1]; listed as GST-Nogo-66,two orders of magnitude more potent than Amino-Nogo
same,concentration acutely altering growth cone morphology (as low as),[1]; soluble GST-Nogo purified on glutathione-Sepharose resin,1 nM
same,growth cone morphology (in words),"[1]; soluble form at 100 nM, chick E12 DRG",collapses chick E12 dorsal root ganglion growth cones
same,EC50,"[1]; urea-extracted GST-Nogo, chick E12 dorsal root ganglion neurons, read-out: EC50 growth cone collapsing activity",50 nM
